Measured values taken from the supplement of paper PMC7877785.
± gives the uncertainty stated by the source.

Test: self-splicing fitness, log relative to wild type (ln ratio); higher = more splicing; Tetrahymena group I intron in knt gene, E. coli kanamycin selection, DiMSum; sequences stand for … in CUCUCU…GGAGGGAAAAGUUAUCAGGCAUGCACCUGGUAGCUAGUCUUUAAACCAAUAGAUUGCAUCGGUUUAAAAGGCAAGACCGUCAAAUUGCGGGAAAGGGGUCAACAGCCGUUCAGUACCAAGUCUCAGGGGAAACUUUGAGAUGGCCUUGCAAAGGGUAUGGUAAUAAGCUGACGGACAUGGUCCUAACCACGCAGCCAAGUCCUAAGUCAACAGAUCUUCUGUUGAUAUGGAUGCAGUUCACAGACUAAAUGUCGGUCGGGGAAGAUGUAUUCUUCUCAUAAGAUAUAGUCGGACCUCUCCUUAAUGGGAGCUAGCGGAUGAAGUGAUGCAACACUGGAGCCGCUGGGAACUAAUUUGUAUGCGAAAGUAUAUUGAUUAGUUUUGGAGUACUCGUGGUCG
Method in brief: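 The eight P1ex-region nucleotides of an intron in the knt kanamycin-resistance gene on pET-22b(+) were all randomised and the library put into E. coli BL21(DE3). Six replicate transformations were grown overnight at 37°C or 30°C on LB agar with or without 25 μg/mL kanamycin, together with 100 μg/mL carbenicillin, 50 μM IPTG and 0.2% rhamnose. Colonies were pooled and amplicon-sequenced on an Illumina HiSeq 2500. Fitness from DiMSum is the error-weighted combination of wild-type-normalised replicate fold changes, kanamycin over none.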

Sequence | self-splicing fitness (ln) (30 °C) | self-splicing fitness (ln) (37 °C)
UCGCAGCAAUAUUACGGGAA | -2.44 ± 0.15 | -1.49 ± 0.13
UCGCAGCAAUAUUACGGUCA | -0.966 ± 0.1 | 0.119 ± 0.11
UCGCAGCAAUAUUACGUAAC | -3.25 ± 0.29 | -1.73 ± 0.23
UCGCAGCAAUAUUACGUACG | -1.12 ± 0.12 | -0.686 ± 0.13
UCGCAGCAAUAUUACGUAUA | -1.82 ± 0.11 | -0.691 ± 0.12
UCGCAGCAAUAUUACGUGAA | -1.32 ± 0.078 | -0.713 ± 0.086
UCGCAGCAAUAUUACGUGUG | -2.24 ± 0.074 | -2.33 ± 0.12
UCGCAGCAAUAUUACGUUAA | -2.18 ± 0.12 | -1 ± 0.096
UCGCAGCAAUAUUACGUUGG | -2.56 ± 0.11 | -2.12 ± 0.12
UCGGAGCAAUAUUACGAACA | -2.3 ± 0.21 | -1.25 ± 0.21
UCGGAGCAAUAUUACGACAU | -3.91 ± 0.041 | -2.98 ± 0.052
UCGGAGCAAUAUUACGACCG | -2.42 ± 0.45 | –
UCGGAGCAAUAUUACGAGGG | -3.58 ± 0.21 | -2.94 ± 0.44
UCGGAGCAAUAUUACGCACU | -3.53 ± 0.25 | -2.23 ± 0.23
UCGGAGCAAUAUUACGCCUG | -0.894 ± 0.26 | –
UCGGAGCAAUAUUACGCGCG | -2.02 ± 0.18 | -0.752 ± 0.2
UCGGAGCAAUAUUACGCUUA | -2.33 ± 0.33 | -1.89 ± 0.41
UCGGAGCAAUAUUACGGCGC | -2.09 ± 0.31 | –
UCGGAGCAAUAUUACGGGAG | – | -2.24 ± 0.44
UCGGAGCAAUAUUACGGUAU | -3.24 ± 0.35 | -2.16 ± 0.26
UCGGAGCAAUAUUACGUAAU | – | -1.86 ± 0.33

Sequence | self-splicing fitness (ln) (30 °C) | self-splicing fitness (ln) (37 °C)
UCGGAGCAAUAUUACGUCAU | – | -2.37 ± 0.25
UCGGAGCAAUAUUACGUCGU | -1.37 ± 0.25 | -1.73 ± 0.3
UCGGAGCAAUAUUACGUGCA | -0.902 ± 0.17 | -1.03 ± 0.25
UCGGAGCAAUAUUACGUUGG | -2.09 ± 0.17 | -1.77 ± 0.23
UCGUAGCAAUAUUACGACCA | -1.35 ± 0.3 | –
UCGUAGCAAUAUUACGAUGG | -1.88 ± 0.12 | -1.07 ± 0.14
UCGUAGCAAUAUUACGCAUG | -2.33 ± 0.18 | -0.84 ± 0.16
UCGUAGCAAUAUUACGCCAU | – | -0.949 ± 0.45
UCGUAGCAAUAUUACGCCGU | -1.52 ± 0.14 | -0.646 ± 0.16
UCGUAGCAAUAUUACGGCAG | -2.75 ± 0.13 | -2.07 ± 0.15
UCGUAGCAAUAUUACGGCGA | -1.85 ± 0.37 | -0.98 ± 0.2
UCGUAGCAAUAUUACGGCUA | -0.508 ± 0.32 | -1.81 ± 0.23
UCGUAGCAAUAUUACGGGAA | -1.71 ± 0.2 | -1.06 ± 0.16
UCGUAGCAAUAUUACGGGUC | -3.02 ± 0.26 | -4.36 ± 0.46
UCGUAGCAAUAUUACGGUGC | -3.62 ± 0.33 | -3.15 ± 0.47
UCGUAGCAAUAUUACGGUGG | -2.84 ± 0.098 | -1.31 ± 0.086
UCGUAGCAAUAUUACGUCUC | -2.93 ± 0.19 | -2.29 ± 0.22
UCGUAGCAAUAUUACGUUAU | -4.46 ± 0.42 | -2.64 ± 0.34
UCGUAGCAAUAUUACGUUGU | -4.46 ± 0.46 | -2.43 ± 0.23
UCUAAGCAAUAUUACGAAAA | – | -1.34 ± 0.29
